# Results published in US20180177850A1 (HANMI PHARM, published 2018).
# Bridges are numbered along the chain shown (N, C = ends). Where no end group is shown, it is not given here. [ ]: non-standard residue; d: D form. The star is where a group is joined. Acetyl(2-(4-imidazolyl)) = O=C(Cc1c[nH]cn1)*; Aib = CC(C)(N)C(=O)O
# Legend:
# Assay in all cases: cell-based or functional assay
# [1] = target: human GLP-1 receptor (human) (UniProt P43220)
# [2] = target: human glucagon receptor (human) (UniProt P47871)
# Sequence of human glucagon receptor (human) (P47871 26-477): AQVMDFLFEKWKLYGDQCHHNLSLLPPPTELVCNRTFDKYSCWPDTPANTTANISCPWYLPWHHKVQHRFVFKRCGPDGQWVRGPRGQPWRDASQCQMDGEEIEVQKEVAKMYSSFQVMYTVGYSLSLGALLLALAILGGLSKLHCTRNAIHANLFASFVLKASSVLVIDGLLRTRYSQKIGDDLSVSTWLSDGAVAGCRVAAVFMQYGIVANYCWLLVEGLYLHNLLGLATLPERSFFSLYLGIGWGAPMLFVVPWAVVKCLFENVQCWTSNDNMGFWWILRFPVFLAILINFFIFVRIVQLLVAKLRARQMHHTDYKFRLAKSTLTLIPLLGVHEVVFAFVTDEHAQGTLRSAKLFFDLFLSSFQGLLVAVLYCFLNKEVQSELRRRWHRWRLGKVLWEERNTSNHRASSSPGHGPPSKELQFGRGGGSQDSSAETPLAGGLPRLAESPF
# human glucagon receptor = human glucagon receptor (human, UniProt P47871 26-477)
# Sequence of human glucagon receptor (P47871 26-477): as above
# human GLP-1 receptor = human GLP-1 receptor (human, UniProt P43220 24-463)
# Sequence of human GLP-1 receptor (human) (P43220 24-463): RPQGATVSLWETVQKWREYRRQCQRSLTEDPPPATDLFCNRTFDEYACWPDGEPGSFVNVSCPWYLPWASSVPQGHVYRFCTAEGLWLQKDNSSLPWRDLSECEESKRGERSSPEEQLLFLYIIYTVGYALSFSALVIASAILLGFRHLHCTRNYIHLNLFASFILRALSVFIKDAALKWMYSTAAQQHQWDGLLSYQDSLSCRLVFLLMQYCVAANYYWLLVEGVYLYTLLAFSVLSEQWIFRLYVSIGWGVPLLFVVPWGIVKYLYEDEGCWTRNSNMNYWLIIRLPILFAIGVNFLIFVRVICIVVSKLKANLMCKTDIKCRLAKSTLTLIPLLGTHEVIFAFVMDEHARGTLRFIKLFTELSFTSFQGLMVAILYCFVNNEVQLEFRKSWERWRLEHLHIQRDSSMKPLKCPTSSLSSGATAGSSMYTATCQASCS
Binder,"EC50 (cAMP, CHO/GLP-1R) [1] [nM]","EC50 (cAMP, CHO/GCGR) [2] [nM]","EC50 (cAMP, CHO/GCGR) (human glucagon receptor) [nM]","EC50 (cAMP, CHO/GLP-1R) (human GLP-1 receptor) [nM]"
[Acetyl(2-(4-imidazolyl))]SQGTFTSDYSRYLDEEAVRLFIEWIRNGGPSSGAPPPSK [oxyntomodulin derivative of SEQ ID NO: 18],96.3,> 1000,–,–
[Acetyl(2-(4-imidazolyl))]GEGTFTSDLSRQMEEEAVRLFIEWAAHSQGTFTSDYSKYLD [oxyntomodulin derivative of SEQ ID NO: 6],–,–,> 1000,–
[Acetyl(2-(4-imidazolyl))]SQGTFTSDYSKYLDERRAQDFVAWLKNTGPSSGAPPPS [oxyntomodulin derivative of SEQ ID NO: 3],> 1000,638,–,–
H[Aib]QGTFTSDYSKYLDEKRAKEFVQWLMNTC (bridge 16-20) [oxyntomodulin derivative of SEQ ID NO: 25],–,–,1.3,1.9
[Acetyl(2-(4-imidazolyl))]GEGTFTSDLSRQMEEEAVRLFIEWAAHSQGTFTSDYSRYLDK [oxyntomodulin derivative of SEQ ID NO: 11],–,–,> 1000,> 1000
H[Aib]QGTFTSDYAKYLDEKRAKEFVQWLMNTC (bridge 16-20) [oxyntomodulin derivative of SEQ ID NO: 33],–,–,80.2,2.2
[Acetyl(2-(4-imidazolyl))]SQGTFTSDLSRQLEEEAVRLFIEWLMNK [oxyntomodulin derivative of SEQ ID NO: 8],420,> 1000,–,–
Y[Aib]QGTFTSDYSKYLDEKRAKEFVQWLMNTC (bridge 16-20) [oxyntomodulin derivative of SEQ ID NO: 34],–,–,1.04,12.5
